Reference: US20150125431A1 (ZEALAND PHARMA A S, published 2015)
Non-standard residues stand in square brackets, D forms with d. Aib = CC(C)(N)C(=O)O

T1: human GLP-2 receptor (hGLP2-R), splice variant rs17681684 (human, UniProt O95838 1-553)
T1 sequence (looked up): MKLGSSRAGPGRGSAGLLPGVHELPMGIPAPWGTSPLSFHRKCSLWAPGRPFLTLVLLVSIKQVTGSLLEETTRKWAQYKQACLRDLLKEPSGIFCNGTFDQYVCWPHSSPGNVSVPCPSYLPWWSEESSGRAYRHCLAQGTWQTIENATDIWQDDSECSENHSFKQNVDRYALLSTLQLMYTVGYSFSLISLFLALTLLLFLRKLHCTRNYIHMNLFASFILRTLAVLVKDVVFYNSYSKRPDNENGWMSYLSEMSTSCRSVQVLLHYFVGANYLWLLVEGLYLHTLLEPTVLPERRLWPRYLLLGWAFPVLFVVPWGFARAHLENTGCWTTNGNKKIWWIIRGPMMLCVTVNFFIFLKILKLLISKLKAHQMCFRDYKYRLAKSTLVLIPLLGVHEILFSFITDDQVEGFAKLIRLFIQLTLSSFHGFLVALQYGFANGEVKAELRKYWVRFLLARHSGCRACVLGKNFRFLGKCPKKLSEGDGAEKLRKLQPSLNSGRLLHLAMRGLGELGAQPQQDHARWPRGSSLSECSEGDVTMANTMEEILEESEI


Assays:
Assay in all cases: cell-based or functional assay
[1] = target: human GLP-2 receptor (hGLP2-R), splice variant rs17681684 (human) (UniProt O95838)
[2] = target: human glucagon-like peptide 1 receptor (GLP-1R) (human, UniProt P43220 24-463)
[3] = target: T1, human GLP-2 receptor (hGLP2-R), splice …

Row | Molecule | GLP-2R EC50 (nM), cAMP AlphaScreen on HEK293 cells expressing the receptor [1] [nM] | GLP-1R EC50 (nM), cAMP AlphaScreen on HEK293 cells expressing the receptor [2] [nM] | GLP-2R EC50 (nM), cAMP AlphaScreen on HEK293 cells expressing the receptor [3] [nM]
1 | GLP-1 (from UniProt P01275 98-127) (peptide) | > 1000 |  | 
2 | H-HGEGTFTSDLSKQMEGQAVRDFIEWLIQTKITD-OH [Compound 5: Hy-HGEGTFTSDLSKQMEGQAVRDFIEWLIQTKITD-OH] |  | 1 | 0.2
3 | H-H[Aib]DGSFSDELNTILDGKAARDFINWLIQTK-NH2 (SMILES CC[C@H](C)[C@H](NC(=O)[C@H](Cc1ccccc1)NC(=O)[C@H](CC(=O)O)NC(=O)[C@H](CCCNC(=N)N)NC(=O)[C@H](C)NC(=O)[C@H](C)NC(=O)[C@H](CCCCN)NC(=O)CNC(=O)[C@H](CC(=O)O)NC(=O)[C@H](CC(C)C)NC(=O)[C@@H](NC(=O)[C@@H](NC(=O)[C@H](CC(N)=O)NC(=O)[C@H](CC(C)C)NC(=O)[C@H](CCC(=O)O)NC(=O)[C@H](CC(=O)O)NC(=O)[C@H](CO)NC(=O)[C@H](Cc1ccccc1)NC(=O)[C@H](CO)NC(=O)CNC(=O)[C@H](CC(=O)O)NC(=O)C(C)(C)NC(=O)[C@@H](N)Cc1c[nH]cn1)[C@@H](C)O)[C@@H](C)CC)C(=O)N[C@@H](CC(N)=O)C(=O)N[C@@H](Cc1c[nH]c2ccccc12)C(=O)N[C@@H](CC(C)C)C(=O)N[C@H](C(=O)N[C@@H](CCC(N)=O)C(=O)N[C@H](C(=O)N[C@@H](CCCCN)C(N)=O)[C@@H](C)O)[C@@H](C)CC) [Compound 10: Hy-H-Aib-DGSFSDELNTILDGKAARDFINWLIQTK-NH2] |  | 0.03 | 3.9
4 | H-H[Aib]DGSFSDEMNTILDNQAARDFINWLIQTKITD-OH (SMILES CC[C@H](C)[C@H](NC(=O)[C@H](Cc1ccccc1)NC(=O)[C@H](CC(=O)O)NC(=O)[C@H](CCCNC(=N)N)NC(=O)[C@H](C)NC(=O)[C@H](C)NC(=O)[C@H](CCC(N)=O)NC(=O)[C@H](CC(N)=O)NC(=O)[C@H](CC(=O)O)NC(=O)[C@H](CC(C)C)NC(=O)[C@@H](NC(=O)[C@@H](NC(=O)[C@H](CC(N)=O)NC(=O)[C@H](CCSC)NC(=O)[C@H](CCC(=O)O)NC(=O)[C@H](CC(=O)O)NC(=O)[C@H](CO)NC(=O)[C@H](Cc1ccccc1)NC(=O)[C@H](CO)NC(=O)CNC(=O)[C@H](CC(=O)O)NC(=O)C(C)(C)NC(=O)[C@@H](N)Cc1c[nH]cn1)[C@@H](C)O)[C@@H](C)CC)C(=O)N[C@@H](CC(N)=O)C(=O)N[C@@H](Cc1c[nH]c2ccccc12)C(=O)N[C@@H](CC(C)C)C(=O)N[C@H](C(=O)N[C@@H](CCC(N)=O)C(=O)N[C@H](C(=O)N[C@@H](CCCCN)C(=O)N[C@H](C(=O)N[C@H](C(=O)N[C@@H](CC(=O)O)C(=O)O)[C@@H](C)O)[C@@H](C)CC)[C@@H](C)O)[C@@H](C)CC) [Compound 1: Hy-H-Aib-DGSFSDEMNTILDNQAARDFINWLIQTKITD-OH] |  | 44 | 0.12
5 | H-HGEGTFTSDLSTILENKAARDFIEWLIQTKITD-OH [Compound 8: Hy-HGEGTFTSDLSTILENKAARDFIEWLIQTKITD-OH] |  | 16 | 0.008
6 | H-HGEGSFSSDLSTILEGKAARDFIEWLIQTKITD-OH [Compound 13: Hy-HGEGSFSSDLSTILEGKAARDFIEWLIQTKITD-OH] |  | 18 | 0.1
7 | H-HGEGTFTSDLSKQMESKAARDFIEWLIQTKITD-OH [Compound 6: Hy-HGEGTFTSDLSKQMESKAARDFIEWLIQTKITD-OH] |  | 1.1 | 
8 | H-HGDGSFSSELATILDGQAARDFIAWLIQTKITD-OH [Compound 11: Hy-HGDGSFSSELATILDGQAARDFIAWLIQTKITD-OH] |  | 0.34 | 0.2
9 | H-HGDGSFSSELATILDGKAARDFINWLIQTKITD-OH [Compound 7: Hy-HGDGSFSSELATILDGKAARDFINWLIQTKITD-OH] |  | 0.78 | 0.2
10 | H-HGDGSFSDEMNTILDNKAARDFINWLIQTKITD-OH [Compound 2: Hy-HGDGSFSDEMNTILDNKAARDFINWLIQTKITD-OH] |  | 77 | 0.02
11 | H-HGEGSFSSDLSTILENKAARDFIEWLIQTKITD-OH [Compound 9: Hy-HGEGSFSSDLSTILENKAARDFIEWLIQTKITD-OH] |  | 9.1 | 0.2
12 | H-HGDGSFSSEMNTILDSQAARDFINWLIQTKITD-OH [Compound 4: Hy-HGDGSFSSEMNTILDSQAARDFINWLIQTKITD-OH] |  | 25 | 0.06
